These results are taken from article PMC10272163, “Genome-wide association studies identify OsWRKY53 as a key regulator of salt tolerance in rice”.

The target in this data set is MBP-OsWRKY53 (Oryza sativa (rice), UniProt A7BEY7 1-487). As to the kind of experiment: EMSA; 60 fmol probe, 2 ug protein; EMSA: 20 uL, 25 C 30 min, LightShift kit buffer (composition not given), 6% native PAGE, 0.5x TBE pH 8.3, 4 C; SPR: CM5 chip with anti-biotin antibody capturing biotin-oligo, 10 uL/min, reaction buffer composition and temperature not given. The conditions noted are these: protein: recombinant; tags: MBP (N-terminal, pMal-c2x); label: biotin.
Chain of MBP-OsWRKY53 (A7BEY7 entry or part of it): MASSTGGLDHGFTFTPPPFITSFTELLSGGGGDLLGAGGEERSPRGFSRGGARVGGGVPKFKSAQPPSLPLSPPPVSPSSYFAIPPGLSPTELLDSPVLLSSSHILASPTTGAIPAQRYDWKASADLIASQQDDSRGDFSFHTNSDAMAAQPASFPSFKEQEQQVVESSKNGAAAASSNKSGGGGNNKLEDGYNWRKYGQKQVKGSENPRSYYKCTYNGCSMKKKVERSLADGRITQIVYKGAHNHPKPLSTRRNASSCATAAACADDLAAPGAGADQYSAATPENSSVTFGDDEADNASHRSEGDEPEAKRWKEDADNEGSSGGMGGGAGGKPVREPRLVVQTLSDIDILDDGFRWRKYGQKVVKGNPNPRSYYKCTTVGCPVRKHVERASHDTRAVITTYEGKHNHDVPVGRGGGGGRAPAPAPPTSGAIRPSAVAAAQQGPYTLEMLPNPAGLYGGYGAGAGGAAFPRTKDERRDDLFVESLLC

B1: OsHKT1;5 (SKC1) promoter W-box probe, 48 bp (SKC1-biotin-F1) (dsDNA)
DNA 1: ATAAGATGTTTTTGACTTTGGTCAAAGTCAAACTGTTTATGTTTGACC
DNA 2: GGTCAAACATAAACAGTTTGACTTTGACCAAAGTCAAAAACATCTTAT
With B1, the binding result is reported as “binds”.

B2: OsMKK10.2 promoter W-box probe, 48 bp (MKK10.2-biotin-F1) (dsDNA)
DNA 1: CGGTTTGGGAACCGACTTAGGGCGGTCAAGGCGCGAGCTGGCGCTCCG
DNA 2: CGGAGCGCCAGCTCGCGCCTTGACCGCCCTAAGTCGGTTCCCAAACCG
B2: the binding result is reported as “binds”.
